Measurements as given in PMC8511952.

How the values were obtained:
[1] = test system: MBP-ERSRC WT (Homo sapiens); assay: fluorescence anisotropy; conditions: unmodified in vitro transcript; FA: 5 nM labeled tRNA, 25 mM Tris-HCl pH 8, 50 mM NaCl, 1 mM MgCl2, room temperature, 30 min
[2] = test system: MBP-ERS2.5W WT (Homo sapiens); assay: fluorescence anisotropy; conditions: unmodified in vitro transcript; FA: 5 nM labeled tRNA, 25 mM Tris-HCl pH 8, 50 mM NaCl, 1 mM MgCl2, room temperature, 30 min

## tRNAGlu(TTC)
[1]
  Kd: 331 nM
[2]
  Kd: 83.7 nM
